This experiment addresses Ste2 GPCR (Saccharomyces cerevisiae) (UniProt D6VTK4). The experiment is described as follows: cell-based or functional assay.

Sequence of Ste2 GPCR (Saccharomyces cerevisiae) (D6VTK4 whole entry): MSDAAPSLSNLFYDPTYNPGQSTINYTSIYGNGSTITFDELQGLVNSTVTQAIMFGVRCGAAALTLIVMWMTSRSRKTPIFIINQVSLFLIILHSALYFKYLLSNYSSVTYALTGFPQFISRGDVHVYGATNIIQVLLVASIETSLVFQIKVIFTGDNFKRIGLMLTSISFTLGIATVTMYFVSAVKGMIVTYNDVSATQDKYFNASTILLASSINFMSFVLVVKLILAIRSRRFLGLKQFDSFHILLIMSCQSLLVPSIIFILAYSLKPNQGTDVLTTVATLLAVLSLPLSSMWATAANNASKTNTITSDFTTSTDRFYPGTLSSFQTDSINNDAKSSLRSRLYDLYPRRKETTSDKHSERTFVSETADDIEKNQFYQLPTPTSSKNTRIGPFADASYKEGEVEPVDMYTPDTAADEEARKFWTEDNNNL

As for “α-factor (from UniProt P01149 90-102) (peptide)”, the GFP max (AU), PFig1-GFP(m) was determined as 7570 AU; the GFP max (AU), PFig1-GFP(s) is 2310 AU; the GFP max (AU), PFus1-GFP(m) was 20500 AU; the GFP max (AU), PFus1-GFP(s) came out at 4560 AU. Besides, the KM (chemical concentration at half maximal signal), GFP reporter PFig1-GFP(m), flow cytometry came to 0.02 µM; the KM (chemical concentration at half maximal signal), GFP reporter PFig1-GFP(s), flow cytometry is 0.03 µM; the KM (chemical concentration at half maximal signal), GFP reporter PFus1-GFP(m), flow cytometry came to 0.02 µM; the KM (chemical concentration at half maximal signal), GFP reporter PFus1-GFP(s), flow cytometry turned out to be 0.02 µM.
